The assay addresses human SIRPγ (signal regulatory protein gamma), expressed on cells (human) (UniProt Q9P1W8). As to the kind of experiment: cell-based or functional assay.
Sequence of UniProt Q9P1W8 (Q9P1W8 29-387): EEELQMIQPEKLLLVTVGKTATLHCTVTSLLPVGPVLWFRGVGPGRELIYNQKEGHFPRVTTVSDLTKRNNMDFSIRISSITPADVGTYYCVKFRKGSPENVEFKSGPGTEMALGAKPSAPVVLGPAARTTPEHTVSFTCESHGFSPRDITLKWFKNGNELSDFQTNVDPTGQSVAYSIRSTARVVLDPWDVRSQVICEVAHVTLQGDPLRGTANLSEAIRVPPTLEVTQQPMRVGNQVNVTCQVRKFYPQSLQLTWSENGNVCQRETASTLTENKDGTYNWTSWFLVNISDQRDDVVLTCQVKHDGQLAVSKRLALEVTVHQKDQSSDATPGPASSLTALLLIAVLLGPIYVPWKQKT

“anti-SIRPγ monoclonal antibody clone OX117”: the level of IFNγ secreted by T cells, relative to OX119-treated cells was > 6 fold and the level of IFNγ secreted by T cells, relative to cells treated with LSB2.20 is 2 fold.

The values above are taken from patent US20220305081A1.
